Assay results published in patent publication US20210292423A1 (published 2021).

target: T1, human CD3ε/δ-Fc fusion protein (soluble recombinant CD3ε/δ complex) (human, UniProt P04234 22-105); assay: SPR Biacore, Fab
T1 construct: also called huCD3ε/δ; huCD3; not shown: hinge, CH2, CH3 of human IgG with tag
Procedure: (§1) Binding affinities of anti-CD3 binding Fabs or CODV-Fabs were measured by surface plasmon resonance (SPR) using a Biacore3000 instrument (GE Healthcare). Assay buffer was HBS-EP (BR-1001-88, GE Healthcare). Capture of CD3ε/δ-Fc fusion proteins was achieved using the human antibody capture kit (GE Healthcare). […] The CD3εδ-Fc fusions proteins were captured at 10 μl/min to approx. 70 RU to yield Rmax values of 30 RU. Binding kinetics with the anti-CD3 Fabs or CODV-Fabs was measured at 30 μl/min for 240 sec. and 600 sec. for association and dissociation phase, respectively. Twofold dilutions of Fabs from 3 to 400 nM in assay buffer were used. All Fab concentrations were run in duplicate together with duplicate buffer blanks for double referencing. Regeneration of the capture surface was performed with a 1 min injection of 3M MgCl2 solution at 30 μl/min. For data analysis the BIAevaluation software v.4.1 (GE Healthcare) was used. Data were fit globally using a 1:1 Langmuir model with mass transfer.

T1 sequence (chain, as listed by the source mutant, chain 1 of 2): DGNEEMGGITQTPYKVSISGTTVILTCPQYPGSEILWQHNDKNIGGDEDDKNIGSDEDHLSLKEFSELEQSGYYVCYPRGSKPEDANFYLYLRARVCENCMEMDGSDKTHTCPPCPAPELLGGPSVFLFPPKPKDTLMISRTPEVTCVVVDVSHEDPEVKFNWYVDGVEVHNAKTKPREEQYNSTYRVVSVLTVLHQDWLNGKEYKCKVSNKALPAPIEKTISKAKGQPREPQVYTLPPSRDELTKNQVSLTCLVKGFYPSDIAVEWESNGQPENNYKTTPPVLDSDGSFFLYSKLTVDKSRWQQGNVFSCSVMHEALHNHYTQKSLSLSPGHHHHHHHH
T1 sequence (P04234 22-105, stated change not applied, chain 2 of 2): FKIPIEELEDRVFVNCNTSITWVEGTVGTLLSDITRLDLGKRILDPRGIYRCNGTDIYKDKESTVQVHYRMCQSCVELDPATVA

Binder | Kd [nM] | koff [s⁻¹] | kon [M⁻¹ s⁻¹]
humanized 4B4 Fab 4B4_6 (VL1a, VH1A) (Fab, V domains shown, expressed as Fab-fragment) VH: QVQLVETGGGLVKPGQSLKLTCATSGFTFSNAWMHWVRQSPEKGLEWVAQIKARSNNYATYYAESVKGRFTISRDDSKSTIYLQMNSLTPEDTAIYYCRGTYYASKPFDYWGQGVMVTVSS VL: DVVMTQTPVSLSVSVGGRVSISCRSSQSLVHDNGNTYLSWSLQKPGKSPKVLIYKVSNRFSGVSSRFTGSGSGTDFTLKISSVQPDDLGVYYCGQGTQYPFTFGSGTKLEIK | 1.24 | 0.00185 | 1.5e+06
humanized 4B4 Fab 4B4_10 (VL1_CM2, VH6_BM2) (Fab, V domains shown) VH: QVQLVESGGRVVQPGRSLRLTCAASGFTFSNAWMHWVRQAPGKQLEWVAQIKARSNNYATYYAESVKGRFTISRDDSKSTIYLQMNSLRAEDTAVYYCRGTYYASKPFDYWGQGTTVTVSS VL: DVVMTQSPLSLSVTLGQPVSISCRSSQSLVHDNGNTYLSWSLQRPGQSPRVLIYKVSNRFSGVPDRFSGSGSGTDFTLKISRVEAEDVGVYYCGQGTQYPFTFGSGTKLEIK | 9.19 | 0.00399 | 434000
humanized 4B4 Fab 4B4_5 (VL2C, VH6D) (Fab, V domains shown, expressed as Fab-fragment) VH: QVQLVESGGGVVQPGRSLRLSCATSGFTFSNAWMHWVRQAPGKQLEWVAQIKARSNNYATYYADSVKGRFTISRDDSKSTIYLQMNSLRAEDTAVYYCRGTYYASKPFDYWGQGTLVTVSS VL: DIVMTQTPLSLSVTPGQPASISCKSSQSLVHDNGNTYLSWSLQKPGQSPQVLIYKVSNRFSGVPDRFSGSGSGTDFTLKISRVEAEDVGVYYCGQGTQYPFTFGSGTKLEIK | 18.2 | 0.00423 | 233000
humanized 4B4 Fab 4B4_17 (VL2A, VH2B) (Fab, V domains shown, expressed as Fab-fragment) VH: EVQLVETGGGLVQPGGSLKLTCATSGFTFSNAWMHWVRQSPEKGLEWVAQIKARSNNYATYYADSVKGRFTISRDDSKSTIYLQMNSLRAEDTAIYYCRGTYYASKPFDYWGQGVMVTVSS VL: DVVMTQTPVSLSVSPGGPVSISCRSSQSLVHDNGNTYLSWSLQKPGQSPQVLIYKVSNRFSGVSDRFTGSGSGTDFTLKISRVEPDDLGVYYCGQGTQYPFTFGSGTKLEIK | 8.91 | 0.00276 | 310000

Other lines, results leading:

Kd [nM] | koff [s⁻¹] | kon [M⁻¹ s⁻¹] | Binder
2.77 | 0.00174 | 628000 | humanized 4B4 Fab 4B4_1 (VL1a, VH1B) (Fab, V domains shown, expressed as Fab-fragment) VH: QVQLVETGGGLVKPGQSLKLTCATSGFTFSNAWMHWVRQSPEKGLEWVAQIKARSNNYATYYAVSVKGRFTISRDDSKSTIYLQMNSLTPEDTAIYYCRGTYYASKPFDYWGQGVMVTVSS VL: DVVMTQTPVSLSVSVGGRVSISCRSSQSLVHDNGNTYLSWSLQKPGKSPKVLIYKVSNRFSGVSSRFTGSGSGTDFTLKISSVQPDDLGVYYCGQGTQYPFTFGSGTKLEIK
7.48 | 0.00214 | 286000 | humanized 4B4 Fab 4B4_2 (VL1b, VH1B) (Fab, V domains shown, expressed as Fab-fragment) VH: QVQLVETGGGLVKPGQSLKLTCATSGFTFSNAWMHWVRQSPEKGLEWVAQIKARSNNYATYYAVSVKGRFTISRDDSKSTIYLQMNSLTPEDTAIYYCRGTYYASKPFDYWGQGVMVTVSS VL: DVVMTQTPVSLSVSVGGRVSISCRSSQSLVHDNANTYLSWSLQKPGKSPKVLIYKVSNRFSGVSSRFTGSGSGTDFTLKISSVQPDDLGVYYCGQGTQYPFTFGSGTKLEIK
8.1 | 0.00248 | 306000 | humanized 4B4 Fab 4B4_7 (VL1b, VH1A) (Fab, V domains shown, expressed as Fab-fragment) VH: QVQLVETGGGLVKPGQSLKLTCATSGFTFSNAWMHWVRQSPEKGLEWVAQIKARSNNYATYYAESVKGRFTISRDDSKSTIYLQMNSLTPEDTAIYYCRGTYYASKPFDYWGQGVMVTVSS VL: DVVMTQTPVSLSVSVGGRVSISCRSSQSLVHDNANTYLSWSLQKPGKSPKVLIYKVSNRFSGVSSRFTGSGSGTDFTLKISSVQPDDLGVYYCGQGTQYPFTFGSGTKLEIK
13.4 | 0.00291 | 218000 | humanized 4B4 Fab 4B4_9 (VL2B, VH2A) (Fab, V domains shown, expressed as Fab-fragment) VH: EVQLVETGGGLVQPGGSLKLTCATSGFTFSNAWMHWVRQSPEKGLEWVAQIKARSNNYATYYAESVKGRFTISRDDSKSTIYLQMNSLRAEDTAIYYCRGTYYASKPFDYWGQGVMVTVSS VL: DVVMTQTPVSLSVSPGGPVSISCRSSQSLVHDNANTYLSWSLQKPGQSPQVLIYKVSNRFSGVSDRFTGSGSGTDFTLKISRVEPDDLGVYYCGQGTQYPFTFGSGTKLEIK
33.5 | 0.00171 | 50900 | humanized 4B4 Fab 4B4_20 (VL2F, VH6C) (Fab, V domains shown, expressed as Fab-fragment) VH: QVQLVESGGGVVQPGRSLRLSCAASGFTFSNAWMHWVRQAPGKQLEWVAQIKARSNNYATYYADSVKGRFTISRDDSKSTLYLQMNSLRAEDTAVYYCRGTYYASKPFDYWGQGTLVTVSS VL: DIVMTQTPLSLSVTPGQPASISCKSSQSLVHDNANTYLSWYLQKPGQSPQSLIYKVSNRFSGVPDRFSGSGSGTDFTLKISRVEAEDVGVYYCGQGTQYPFTFGSGTKVEIK

target: T1, human CD3ε/δ-Fc fusion protein (soluble …); assay: SPR Biacore, CODV-Fab on recombinant CD3ε/δ
Procedure: as §1

Binder | Kd [nM] | koff [s⁻¹] | kon [M⁻¹ s⁻¹]
CODV-Fab 7G3 × 20G6 with humanized 20G6 VL1D_VH1B (bispecific antibody) light: DIVMTQTPLSLSVTPGQPASISCKSSQSLVHNNGNTYLSWYLQKPGQSPQSLIYKVSNRFSGVPDRFSGSGSGTDFTLKISRVEAEDVGVYYCGQGTQYPFTFGSGTKVEIKGQPKAAPDFVMTQSPSSLTVTAGEKVTMSCKSSQSLLNSGNQKNYLTWYLQKPGQPPKLLIYWASTRESGVPDRFTGSGSGTDFTLTISSVQAEDLAVYYCQNDYSYPYTFGGGTKLEIKTKGPSRTVAAPSVFIFPPSDEQLKSGTASVVCLLNNFYPREAKVQWKVDNALQSGNSQESVTEQDSKDSTYSLSSTLTLSKADYEKHKVYACEVTHQGLSSPVTKSFNRGEC heavy: EVQLQQSGPELVKPGASVKMSCKASGYTFTDYYMKWVKQSHGKSLEWIGDIIPSNGATFYNQKFKGKATLTVDRSSSTAYMHLNSLTSEDSAVYYCTRSHLLRASWFAYWGQGTLVTVSASQVQLVESGGGVVQPGRSLRLSCAASGFTFTKAWMHWVRQAPGKQLEWVAQIKDKSNSYATYYADSVKGRFTISRDNSKNTLYLQMNSLRAEDTAVYYCRGVYYALSPFDYWGQGTLVTVSSRTASTKGPSVFPLAPSSKSTSGGTAALGCLVKDYFPEPVTVSWNSGALTSGVHTFPAVLQSSGLYSLSSVVTVPSSSLGTQTYICNVNHKPSNTKVDKKVEPKSCDKTHTHHHHHH | 58.7 | 0.00109 | 18600
CODV-Fab 7G3 × 20G6 with humanized 20G6 VL1A_VH1A (bispecific antibody) light: DIVMTQTPLSLSVTPGQPASISCKSSQSLVHNNGNTYLSWYLQKPGQSPQLLIYKVSNRFSGVPDRFSGSGSGTDFTLKISRVEAEDVGVYYCGQGTQYPFTFGQGTKLEIKGQPKAAPDFVMTQSPSSLTVTAGEKVTMSCKSSQSLLNSGNQKNYLTWYLQKPGQPPKLLIYWASTRESGVPDRFTGSGSGTDFTLTISSVQAEDLAVYYCQNDYSYPYTFGGGTKLEIKTKGPSRTVAAPSVFIFPPSDEQLKSGTASVVCLLNNFYPREAKVQWKVDNALQSGNSQESVTEQDSKDSTYSLSSTLTLSKADYEKHKVYACEVTHQGLSSPVTKSFNRGEC heavy: EVQLQQSGPELVKPGASVKMSCKASGYTFTDYYMKWVKQSHGKSLEWIGDIIPSNGATFYNQKFKGKATLTVDRSSSTAYMHLNSLTSEDSAVYYCTRSHLLRASWFAYWGQGTLVTVSASQVQLVESGGGVVQPGRSLRLSCAASGFTFTKAWMHWVRQAPGKGLEWVAQIKDKSNSYATYYADSVKGRFTISRDNSKNTLYLQMNSLRAEDTAVYYCRGVYYALSPFDYWGQGTLVTVSSRTASTKGPSVFPLAPSSKSTSGGTAALGCLVKDYFPEPVTVSWNSGALTSGVHTFPAVLQSSGLYSLSSVVTVPSSSLGTQTYICNVNHKPSNTKVDKKVEPKSCDKTHTHHHHHH | 152 | 0.00434 | 28600
CODV-Fab 7G3 × 20G6 with humanized 20G6 VL1B_VH1A (bispecific antibody) light: DIVMTQTPLSLSVTPGQPASISCKSSQSLVHNNGNTYLSWYLQKPGQSPQLLIYKVSNRFSGVPDRFSGSGSGTDFTLKISRVEAEDVGVYYCGQGTQYPFTFGGGTKVEIKGQPKAAPDFVMTQSPSSLTVTAGEKVTMSCKSSQSLLNSGNQKNYLTWYLQKPGQPPKLLIYWASTRESGVPDRFTGSGSGTDFTLTISSVQAEDLAVYYCQNDYSYPYTFGGGTKLEIKTKGPSRTVAAPSVFIFPPSDEQLKSGTASVVCLLNNFYPREAKVQWKVDNALQSGNSQESVTEQDSKDSTYSLSSTLTLSKADYEKHKVYACEVTHQGLSSPVTKSFNRGEC heavy: EVQLQQSGPELVKPGASVKMSCKASGYTFTDYYMKWVKQSHGKSLEWIGDIIPSNGATFYNQKFKGKATLTVDRSSSTAYMHLNSLTSEDSAVYYCTRSHLLRASWFAYWGQGTLVTVSASQVQLVESGGGVVQPGRSLRLSCAASGFTFTKAWMHWVRQAPGKGLEWVAQIKDKSNSYATYYADSVKGRFTISRDNSKNTLYLQMNSLRAEDTAVYYCRGVYYALSPFDYWGQGTLVTVSSRTASTKGPSVFPLAPSSKSTSGGTAALGCLVKDYFPEPVTVSWNSGALTSGVHTFPAVLQSSGLYSLSSVVTVPSSSLGTQTYICNVNHKPSNTKVDKKVEPKSCDKTHTHHHHHH | 138 | 0.00414 | 29900
